From patent publication US9481899B2, “Methods and compositions for producing hydrocarbons” (priority 2008, dated 2016)

B1: SEQ ID NO: 3: Synechocystis sp. PCC6803 sll0208, putative decarbonylase (protein, listed as Synechocystis sp.)
chain: MPELAVRTEFDYSSEIYKDAYSRINAIVIEGEQEAYSNYLQMAELLPEDKEELTRLAKMENRHKKGFQACGNNLQVNPDMPYAQEFFAGLHGNFQHAFSEGKVVTCLLIQALIIEAFAIAAYNIYIPVADDFARKITEGVVKDEYTHLNYGEEWLKANFATAKEELEQANKENLPLVWKMLNQVQGDAKVLGMEKEALVEDFMISYGEALSNIGFSTREIMRMSSYGLAGV
B2: SEQ ID NO: 29: Cyanothece sp. PCC7425 Cyan7425_0398, putative decarbonylase (protein, listed as Cyanothece sp.)
chain: MPQVQSPSAIDFYSETYQDAYSRIDAIVIEGEQEAHDNYLKLTELLPDCQEDLVRLAKMEARHKKGFEACGRNLKVTPDMEFAQQFFADLHNNFQKAAAANKIATCLVIQALIIECFAIAAYNIYIPVADDFARKITENVVKDEYTHLNFGEEWLKANFDSQREEVEAANRENLPIVWRMLNQVETDAHVLGMEKEALVESFMIQYGEALENIGFSTREIMRMSVYGLSAA
B3: SEQ ID NO: 49: Prochlorococcus marinus MIT9313 PMT1231, putative decarbonylase, codon optimized for E. coli (protein, listed as Prochlorococcus marinus)
chain: MPTLEMPVAAVLDSTVGSSEALPDFTSDRYKDAYSRINAIVIEGEQEAHDNYIAIGTLLPDHVEELKRLAKMEMRHKKGFTACGKNLGVEADMDFAREFFAPLRDNFQTALGQGKTPTCLLIQALLIEAFAISAYHTYIPVSDPFARKITEGVVKDEYTHLNYGEAWLKANLESCREELLEANRENLPLIRRMLDQVAGDAAVLQMDKEDLIEDFLIAYQESLTEIGFNTREITRMAAAALVS
B4: SEQ ID NO: 27: Cyanothece sp. ATCC51142 cce_0778, putative decarbonylase (protein, listed as Cyanothece sp.)
chain: MQELALRSELDFNSETYKDAYSRINAIVIEGEQEAYQNYLDMAQLLPEDEAELIRLSKMENRHKKGFQACGKNLNVTPDMDYAQQFFAELHGNFQKAKAEGKIVTCLLIQSLIIEAFAIAAYNIYIPVADPFARKITEGVVKDEYTHLNFGEVWLKEHFEASKAELEDANKENLPLVWQMLNQVEKDAEVLGMEKEALVEDFMISYGEALSNIGFSTREIMKMSAYGLRAA
B5: SEQ ID NO: 13: Synechococcus sp. JA-3-3Ab CYA_0415, putative decarbonylase (protein, listed as Synechococcus sp.)
chain: MAPANVLPNTPPSPTDGGGTALDYSSPRYRQAYSRINGIVIEGEQEAHDNYLKLAEMLPEAAEELRKLAKMELRHMKGFQACGKNLQVEPDVEFARAFFAPLRDNFQSAAAAGDLVSCFVIQSLIIECFAIAAYNIYIPVADDFARKITEGVVKDEYLHLNFGERWLGEHFAEVKAQIEAANAQNLPLVRQMLQQVEADVEAIYMDREAIVEDFMIAYGEALASIGFNTREVMRLSAQGLRAA
B6: SEQ ID NO: 51: Prochlorococcus mariunus NATL2A PMN2A_1863, putative decarbonylase, codon optimized for E. coli (protein, listed as Prochlorococcus marinus)
chain: MQAFASNNLTVEKEELSSNSLPDFTSESYKDAYSRINAVVIEGEQEAYSNFLDLAKLIPEHADELVRLGKMEKKHMNGFCACGRNLAVKPDMPFAKTFFSKLHNNFLEAFKVGDTTTCLLIQCILIESFAISAYHVYIRVADPFAKRITEGVVQDEYLHLNYGQEWLKANLETVKKDLMRANKENLPLIKSMLDEVSNDAEVLHMDKEELMEEFMIAYQDSLLEIGLDNREIARMALAAVI
B7: SEQ ID NO: 11: Thermosynechococcus elongatus BP-1 tll1313, putative decarbonylase (protein, listed as Thermosynechococcus elongatus)
chain: MTTATATPVLDYHSDRYKDAYSRINAIVIEGEQEAHDNYIDLAKLLPQHQEELTRLAKMEARHKKGFEACGRNLSVTPDMEFAKAFFEKLRANFQRALAEGKTATCLLIQALIIESFAIAAYNIYIPMADPFARKITESVVKDEYSHLNFGEIWLKEHFESVKGELEEANRANLPLVWKMLNQVEADAKVLGMEKDALVEDFMIQYSGALENIGFTTREIMKMSVYGLTGA
B8: SEQ ID NO: 31: Cyanothece sp. PCC7425 Cyan7425_2986, putative decarbonylase (protein, listed as Cyanothece sp.)
chain: MSDCATNPALDYYSETYRNAYRRVNGIVIEGEKQAYDNFIRLAELLPEYQAELTRLAKMEARHQKSFVACGQNLKVSPDLDFAAQFFAELHQIFASAANAGQVATCLVVQALIIECFAIAAYNTYLPVADEFARKVTASVVQDEYSHLNFGEVWLQNAFEQCKDEIITANRLALPLIWKMLNQVTGELRILGMDKASLVEDFSTRYGEALGQIGFKLSEILSLSVQGLQAVTP

System: E. coli MG1655
Experiment: Coexpression of decarbonylase and aldehyde-generating enzyme in E. coli, GC-MS of hydrocarbons
Assay type: cell-based
Conditions: for Production of Alkanes and Alkenes: alkane/alkene biosynthetic polypeptide coexpressed in E. coli with the aldehyde biosynthetic polypeptide of the same table row; for fatty aldehyde decarbonylase activity in E. coli: cotransformed with S. elongatus PCC7942_1594 into E. coli MG1655, M9 minimal media, 37° C.
Source text: Seven cyanobacteria, whose complete genome sequences are publicly available, were selected for verification and/or detection of alkane biosynthesis: Synechococcus elongatus PCC7942, Synechococcus elongatus PCC6301, Anabaena variabilis ATCC29413, Synechocystis sp. PCC6803, Nostoc punctiforme PCC73102, Gloeobacter violaceus ATCC 29082, and Prochlorococcus marinus CCMP1986. Only the first three cyanobacterial strains from this list had previously been reported to contain alkanes (Han et al., J. Am. Chem. Soc. 91:5156-5159 (1969); Fehler et al., Biochem. 9:418-422 (1970)). The strains were grown photoautotrophically in shake flasks in 100 mL of the appropriate media (listed in Table 8) for 3-7 days at 30° C. at a light intensity of approximately 3,500 lux. Cells were extracted for alkane detection as follows: cells from 1 mL culture volume were centrifuged for 1 min at 13,000 rpm, the cell pellets were resuspended in methanol, vortexed for 1 min and then sonicated for 30 min. After centrifugation for 3 min at 13,000 rpm, the supernatants were transferred to fresh vials and analyzed by GC-MS. The samples were analyzed on either 30 m DP-5 capillary column (0.25 mm internal diameter) or a 30 m high temperature DP-5 capillary column (0.25 mm internal diameter) using the following method.
After a 1 μL splitless injection (inlet temperature held at 300° C.) onto the GC/MS column, the oven was held at 100° C. for 3 mins. The temperature was ramped up to 320° C. at a rate of 20° C./min. The oven was held at 320° C. for an additional 5 min. The flow rate of the carrier gas helium was 1.3 mL/min. The MS quadrapole scanned from 50 to 550 m/z. Retention times and fragmentation patterns of product peaks were compared with authentic references to confirm peak identity.
The genomic DNA encoding Synechococcus elongatus PCC7942 orf1594 (YP_400611; putative aldehyde-generating enzyme) (SEQ ID NO:65) was amplified and cloned into the NcoI and EcoRI sites of vector OP-80 (pCL1920 derivative) under the control of the Ptrc promoter. The resulting construct (“OP80-PCC7942_1594”) was transformed into E. coli MG1655 and the cells were grown at 37° C. in M9 minimal media with 1% (w/v) glucose as carbon source and supplemented with 100 μg/mL spectinomycin. When the culture reached OD600 of 0.8-1.0, it was induced with 1 mM IPTG and cells were grown for an additional 18-20 h at 37° C. Cells from 0.5 mL of culture were extracted with 0.5 mL of ethyl acetate. After sonication for 60 min, the sample was centrifuged at 15,000 rpm for 5 min. The solvent layer was analyzed by GC-MS as described in Example 1.
The genomic DNA encoding Synechococcus elongatus PCC7942 orf1593 (YP_400610; putative decarbonylase) (SEQ ID NO:1) was amplified and cloned into the NdeI and XhoI sites of vector OP-183 (pACYC derivative) under the control of the Ptrc promoter. The resulting construct was cotransformed with OP80-PCC7942_1594 into E. coli MG1655 and the cells were grown at 37° C. in M9 minimal media supplemented with 100 μg/mL spectinomycin and 100 μg/mL carbenicillin. The cells were cultured and extracted as in Example 3 and analyzed by GC-MS as described in Example 1. […]

| Molecule | Production of Alkanes and Alkenes | fatty aldehyde decarbonylase activity in E. coli |
| --- | --- | --- |
| SEQ ID NO: 1: Synechococcus elongatus PCC7942 orf1593, putative decarbonylase | yes | active fatty aldehyde decarbonylase |
| B1 | yes | – |
| B2 | yes | active fatty aldehyde decarbonylase |
| B3 | yes | active fatty aldehyde decarbonylase |
| B4 | yes | active fatty aldehyde decarbonylase |
| B5 | yes | – |
| B6 | yes | active fatty aldehyde decarbonylase |
| B7 | yes | active fatty aldehyde decarbonylase |
| B8 | yes | active fatty aldehyde decarbonylase |
